The target in assay [1] is truncated antitoxin PrpA^2–54 (Pseudoalteromonas rubra). The experiment in a line: SEC-MALS; purified PrpTA complex, PrpA^FL and PrpA^2–54 samples (Figure 1A); buffer of these runs not told.
Assay [2] shares this target. The experiment in a line: SEC-MALS; PrpA^2–54 in phosphate buffer (PB), 100 mM NaH2PO4/Na2HPO4 pH 8.0.
Assay [3] shares this target. The experiment in a line: crystal structure; PrpA^2–54 form I and form II, ~5.2 mg/ml in 0.1 M NaCl, 0.05 M Tris pH 8.0; sitting drop, 16°C; molecular replacement with VcParD2 (PDB 7B22).
Assay [4] has the same target. The experiment in a line: SEC-MALS; PrpA^2–54 at increased protein concentration (within a limited range; concentrations not given).
For assay [5], the target named is antitoxin PrpA^FL (Pseudoalteromonas rubra). The experiment in a line: crystal structure; PrpTA complex, ~3.6 mg/ml in 0.1 M NaCl, 0.05 M Tris pH 8.0; sitting drop, 16°C; molecular replacement.
The target is the same in assay [6]. The experiment in a line: SEC-MALS; purified PrpTA complex, PrpA^FL and PrpA^2–54 samples (Figure 1A); buffer of these runs not told.

Regarding “truncated antitoxin PrpA^2–54 (domain or fragment)”, the stoichiometry N was determined as 2 in assay [1], 4 in assay [2], 16 in assay [3] and 6 in assay [4].
antitoxin PrpA^FL (natural protein): the stoichiometry N came to 2 in assay [5] and 4 in assay [6].

The values above are taken from paper PMC9731233.
